Reference: patent publication US11591604B2, “Gene expression in Bacteroides” (Massachusetts Institute of Technology, priority 2015, dated 2023)

B1: Int12: Serine integrase, SEQ ID NO: 167 (protein)
chain: MKVAIYTRVSSAEQANEGYSIHEQKKKLISYCEIHDWNEYKVFTDAGISGGSMKRPALQKLMKHLSSFDLVLVYKLDRLTRNVRDLLDMLEEFEQYNVSFKSATEVFDTTSAIGKLFITMVGAMAEWERETIRERSLFGSRAAVREGNYIREAPFCYDNIEGKLHPNEYAKVIDLIVSMFKKGISANEIARRLNSSKVHVPNKKSWNRNSLIRLMRSPVLRGHTKYGDMLIENTHEPVLSEHDYNAINNAISSKTHKSKVKHHAIFRGALVCPQCNRRLHLYAGTVKDRKGYKYDVRRYKCETCSKNKDVKNVSFNESEVENKFVNLLKSYELNKFHIRKVEPVKKIEYDIDKINKQKINYTRSWSLGYIEDDEYFELMEEINATKKMIEEQTTENKQSVSKEQIQSINNFILKGWEELTIKDKEELILSTVDKIEFNFIPKDKKHKTNTLDINNIHFKF

How the values were obtained:
[1] = tested on: Bacteroides spp; assay: pNBU1 integration and gene expression across Bacteroides and Parabacteroides species; type: cell-based
Text: FIG. 11 is a graph showing that pNBU1 may be used to target, for example, B. thetaiotaomicron, B. fragilis, B. ovatus, B. vulgatus, B. caccae, B. eggerthii, B. vulgatus and Parabacteroides distasonis.
An integration vector, designated pNBU1, was created to introduce recombinant DNA into a wide range of Bacteroides species (FIG. 10). IntN1 integrase catalyzes site-specific genomic integration of the plasmid into recipient Bacteroides strains.

[2] = tested on: integrase recognition sequences in the memory array; assay: Integrase-mediated DNA inversion in chromosomal memory array detected by PCR; type: cell-based, B. thetaiotaomicron; details: integrase expressed from PAM4-rpiL*, PCR detection
Text: (FIG. 3C) Integrase-mediated DNA inversion at each integrase target sequence in the memory array cassette was detected by polymerase chain reaction (PCR). Primer pairs (arrows) anneals to the interface of the integrase recognition sites and to the spacer region between recognition sites. PCR amplification occurs only after an inversion event (solid lines below the primer arrows indicate expected amplicons). (FIG. 3D) Representative PCR products are shown after recombination. − indicates no integrase, + indicates the integrase is present. PAM4-rpiL* was used to control expression of each integrase.

[3] = tested on: B. thetaiotaomicron; assay: Cell growth (OD600) of P3763-rpiL*C51-Int12 strain versus rhamnose concentration; type: cell-based; details: even when maximally expressed
Text: FIGS. 8A-8B. Integrase characterization. (FIG. 8A) Representative PCR products are shown for wild-type (unflipped) memory array at each integrase recognition sequence. “−” indicates no integrase, “+” indicates the integrase is present. PAM4-rpiL* was used to control expression of each integrase. (FIG. 8B) Cell growth of the P3763-rpiL*C51-Int12 strain is shown as optical density (OD) at 600 nm as a function of rhamnose concentration. Inducer concentrations were three-fold serial dilutions starting at 10 mM rhamnose. The leftmost data point represents the […] in the absence of inducer. Cells were grown 8 hours at 37° C. before measuring the OD600 value for each culture. Error bars represent the standard deviation of three biological replicates made on three different days (n=3).
To create an inducible memory switch, Int12 was cloned under the control of the rhamnose-inducible promoter with the rpiL*RBS variant C51 (FIG. 3E) (see also FIG. 1C, Table 1).

Molecule	host range and efficiency relative to the pNBU2 plasmid [1]	recombination at the respective recognition sequence in the memory array [2]	impact on growth of B. thetaiotaomicron [3]
pNBU1: integration vector with IntN1 integrase, SEQ ID NO: 209	greater host range and efficiency		
B1		catalyzed recombination	did not impact growth
